From patent US20210388087A1 (Chugai, published 2021)
Numbering of substitutions follows the chain as printed.

B1: GLS3000 H34S (antibody, name in Kabat numbering, V domains shown)
VH: QVQLVESGGGVVQPGRSLRLSCAASGFTFSNAWMHWVRQAPGKGLEWVAQIKAKSNNYATYYAESVKGRFTISRDDSKNSLYLQMNSLKTEDTAVYYCRYVHYGAYYGVDAWGQGTTVTVSS
VL: DIVMTQSPLSLPVTPGEPASISCRSSQSLVHSNRNTYLSWYQQKPGQAPRLLIYKVSNRFSGVPDRFSGSGSGTDFTLKISRVEAEDVGVYYCGQGTQVPYTFGQGTKLEIK
notes: one-arm IgG as m2
B2: GLS3000 L33V (antibody, name in Kabat numbering, V domains shown)
VH: B1 VH
VL: B1 VL with L38V, S39H
notes: one-arm IgG as m2
B3: GLS3000 K50G (antibody, name in Kabat numbering, V domains shown)
VH: B1 VH
VL: B1 VL with S39H, K55G
notes: one-arm IgG as m2
B4: GLS3000 K50T (antibody, name in Kabat numbering, V domains shown)
VH: B1 VH
VL: B1 VL with S39H, K55T
notes: one-arm IgG as m2
B5: GLS3000 H34T (antibody, name in Kabat numbering, V domains shown)
VH: B1 VH
VL: B1 VL with S39T
notes: one-arm IgG as m2
B6: GLS3000 H34Y (antibody, name in Kabat numbering, V domains shown)
VH: B1 VH
VL: B1 VL with S39Y
notes: one-arm IgG as m2
B7: GLS3000 K50Y (antibody, name in Kabat numbering, V domains shown)
VH: B1 VH
VL: B1 VL with S39H, K55Y
notes: one-arm IgG as m2
B8: GLS3000 K50L (antibody, name in Kabat numbering, V domains shown)
VH: B1 VH
VL: B1 VL with S39H, K55L
notes: one-arm IgG as m2
B9: GLS3000 L33P (antibody, name in Kabat numbering, V domains shown)
VH: B1 VH
VL: B1 VL with L38P, S39H
notes: one-arm IgG as m2
B10: GLS3000 N28A (antibody, name in Kabat numbering, V domains shown)
VH: B1 VH
VL: B1 VL with N33A, S39H
notes: one-arm IgG as m2
B11: GLS3000 L27bI (antibody, name in Kabat numbering, V domains shown)
VH: B1 VH
VL: B1 VL with L29I, S39H
notes: one-arm IgG as m2
B12: GLS3000 K50A (antibody, name in Kabat numbering, V domains shown)
VH: B1 VH
VL: B1 VL with S39H, K55A
notes: one-arm IgG as m2
B13: GLS3000 N28G (antibody, name in Kabat numbering, V domains shown)
VH: B1 VH
VL: B1 VL with N33G, S39H
notes: one-arm IgG as m2
B14: GLS3000 L33A (antibody, name in Kabat numbering, V domains shown)
VH: B1 VH
VL: B1 VL with L38A, S39H
notes: one-arm IgG as m2
B15: GLS3000 K74T (antibody, name in Kabat numbering, V domains shown)
VH: B1 VH
VL: B1 VL with S39H, K79T
notes: one-arm IgG as m2
B16: GLS3000 L27bF (antibody, name in Kabat numbering, V domains shown)
VH: B1 VH
VL: B1 VL with L29F, S39H
notes: one-arm IgG as m2
B17: GLS3000 L27bD (antibody, name in Kabat numbering, V domains shown)
VH: B1 VH
VL: B1 VL with L29D, S39H
notes: one-arm IgG as m2
B18: GLS3000 L33F (antibody, name in Kabat numbering, V domains shown)
VH: B1 VH
VL: B1 VL with L38F, S39H
notes: one-arm IgG as m2
B19: GLS3000 L27bW (antibody, name in Kabat numbering, V domains shown)
VH: B1 VH
VL: B1 VL with L29W, S39H
notes: one-arm IgG as m2
B20: GLS3000 L33M (antibody, name in Kabat numbering, V domains shown)
VH: B1 VH
VL: B1 VL with L38M, S39H
notes: one-arm IgG as m2
B21: GLS3000 L27bE (antibody, name in Kabat numbering, V domains shown)
VH: B1 VH
VL: B1 VL with L29E, S39H
notes: one-arm IgG as m2
B22: GLS3000 L33I (antibody, name in Kabat numbering, V domains shown)
VH: B1 VH
VL: B1 VL with L38I, S39H
notes: one-arm IgG as m2
B23: GLS3000 L27bS (antibody, name in Kabat numbering, V domains shown)
VH: B1 VH
VL: B1 VL with L29S, S39H
notes: one-arm IgG as m2
B24: GLS3000 H34W (antibody, name in Kabat numbering, V domains shown)
VH: B1 VH
VL: B1 VL with S39W
notes: one-arm IgG as m2
B25: GLS3000 L27bM (antibody, name in Kabat numbering, V domains shown)
VH: B1 VH
VL: B1 VL with L29M, S39H
notes: one-arm IgG as m2
B26: GLS3000 K50E (antibody, name in Kabat numbering, V domains shown)
VH: B1 VH
VL: B1 VL with S39H, K55E
notes: one-arm IgG as m2
B27: GLS3000 H34V (antibody, name in Kabat numbering, V domains shown)
VH: B1 VH
VL: B1 VL with S39V
notes: one-arm IgG as m2
B28: GLS3000 N28F (antibody, name in Kabat numbering, V domains shown)
VH: B1 VH
VL: B1 VL with N33F, S39H
notes: one-arm IgG as m2
B29: GLS3000 N28D (antibody, name in Kabat numbering, V domains shown)
VH: B1 VH
VL: B1 VL with N33D, S39H
notes: one-arm IgG as m2
B30: GLS3000 K50P (antibody, name in Kabat numbering, V domains shown)
VH: B1 VH
VL: B1 VL with S39H, K55P
notes: one-arm IgG as m2
B31: GLS3000 N28L (antibody, name in Kabat numbering, V domains shown)
VH: B1 VH
VL: B1 VL with N33L, S39H
notes: one-arm IgG as m2
B32: GLS3000 L27bY (antibody, name in Kabat numbering, V domains shown)
VH: B1 VH
VL: B1 VL with L29Y, S39H
notes: one-arm IgG as m2
B33: GLS3000 K107E (antibody, name in Kabat numbering, V domains shown)
VH: B1 VH
VL: B1 VL with S39H, K112E
notes: one-arm IgG as m2
B34: GLS3000 K50S (antibody, name in Kabat numbering, V domains shown)
VH: B1 VH
VL: B1 VL with S39H, K55S
notes: one-arm IgG as m2
B35: GLS3000 L27bV (antibody, name in Kabat numbering, V domains shown)
VH: B1 VH
VL: B1 VL with L29V, S39H
notes: one-arm IgG as m2
B36: GLS3000 L33D (antibody, name in Kabat numbering, V domains shown)
VH: B1 VH
VL: B1 VL with L38D, S39H
notes: one-arm IgG as m2
B37: GLS3000 N28K (antibody, name in Kabat numbering, V domains shown)
VH: B1 VH
VL: B1 VL with N33K, S39H
notes: one-arm IgG as m2
B38: GLS3000 N28H (antibody, name in Kabat numbering, V domains shown)
VH: B1 VH
VL: B1 VL with N33H, S39H
notes: one-arm IgG as m2
B39: GLS3000 K50Q (antibody, name in Kabat numbering, V domains shown)
VH: B1 VH
VL: B1 VL with S39H, K55Q
notes: one-arm IgG as m2
B40: GLS3000 K50R (antibody, name in Kabat numbering, V domains shown)
VH: B1 VH
VL: B1 VL with S39H, K55R
notes: one-arm IgG as m2
B41: GLS3000 N28M (antibody, name in Kabat numbering, V domains shown)
VH: B1 VH
VL: B1 VL with N33M, S39H
notes: one-arm IgG as m2
B42: GLS3000 L33E (antibody, name in Kabat numbering, V domains shown)
VH: B1 VH
VL: B1 VL with L38E, S39H
notes: one-arm IgG as m2
B43: GLS3000 N28I (antibody, name in Kabat numbering, V domains shown)
VH: B1 VH
VL: B1 VL with N33I, S39H
notes: one-arm IgG as m2
B44: GLS3000 K50D (antibody, name in Kabat numbering, V domains shown)
VH: B1 VH
VL: B1 VL with S39H, K55D
notes: one-arm IgG as m2
B45: GLS3000 L27bP (antibody, name in Kabat numbering, V domains shown)
VH: B1 VH
VL: B1 VL with L29P, S39H
notes: one-arm IgG as m2
B46: GLS3000 N28E (antibody, name in Kabat numbering, V domains shown)
VH: B1 VH
VL: B1 VL with N33E, S39H
notes: one-arm IgG as m2

These binders were tested against T1, CD3 epsilon homodimer protein (UniProt P07766 23-126) (assay: SPR Biacore T200, CD3e homodimer on chip, vs unaltered GLS3000 antibody).
T1 construct: also called CD3 (CD3 epsilon)
T1 sequence (P07766 23-126): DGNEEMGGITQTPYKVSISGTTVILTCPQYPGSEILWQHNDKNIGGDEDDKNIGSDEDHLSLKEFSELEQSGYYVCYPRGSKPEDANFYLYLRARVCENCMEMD

ratio of amounts bound (Z=Y/X)	Binder
0.78	B1
1.05	B2
0.16	B3
0.19	B4
0.89	B5
0.59	B6
0.24	B7
0.24	B8
0.3	B9
0.25	B10
1.19	B11
0.23	B12
0.46	B13
0.85	B14
0.84	B15
0.42	B16
0.17	B17
0.78	B18
0.26	B19
0.93	B20
0.17	B21
0.83	B22
0.71	B23

ratio of amounts bound (Z=Y/X)	Binder
0.24	B24
0.71	B25
0.24	B26
0.85	B27
0.46	B28
0.19	B29
0.3	B30
0.39	B31
0.25	B32
0.94	B33
0.23	B34
1.12	B35
0.17	B36
0.44	B37
0.42	B38
0.18	B39
0.5	B40
0.39	B41
0.72	B42
0.44	B43
0.22	B44
0.91	B45
0.4	B46
